Publication PMC7617670, “Activity Regulation of a Glutamine Amidotransferase Bienzyme Complex by Substrate-Induced Subunit Interface Expansion” (ACS catalysis, 2025)

Target: T1, PabB, synthase subunit of ADCS from Escherichia coli, as crystallized (His tag cleaved) (Escherichia coli, UniProt P05041 1-453)
T1 construct: PabB, synthase subunit of ADCS, E. coli; the gene was cloned into pET28a; Cho and Mg2+ in 8RP0; also called ADCS synthase subunit; source: E. coli BL21-Gold (DE3), purified (Ni-IMAC, TEV cleavage, reverse IMAC, preparative gel filtration); not shown: His6, N-terminal, cleaved
T1 sequence: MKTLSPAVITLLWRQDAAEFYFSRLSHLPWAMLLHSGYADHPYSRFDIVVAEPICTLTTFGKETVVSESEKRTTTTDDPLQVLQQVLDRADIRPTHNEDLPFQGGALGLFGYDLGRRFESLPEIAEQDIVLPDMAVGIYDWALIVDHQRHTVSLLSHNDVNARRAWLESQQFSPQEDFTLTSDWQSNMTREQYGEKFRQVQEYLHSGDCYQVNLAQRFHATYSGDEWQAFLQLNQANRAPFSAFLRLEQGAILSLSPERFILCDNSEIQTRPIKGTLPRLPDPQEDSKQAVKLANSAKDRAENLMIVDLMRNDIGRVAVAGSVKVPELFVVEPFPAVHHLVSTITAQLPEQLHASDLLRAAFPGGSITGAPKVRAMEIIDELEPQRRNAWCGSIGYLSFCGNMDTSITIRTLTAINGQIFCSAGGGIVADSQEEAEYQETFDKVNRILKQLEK
Assay: crystal structure; ADCS heterodimer with Gln-TE on aC79; reservoir supplemented with 0.2 M L-Gln, with or without 14.4 mM Cho added afterwards; 0.1 M MES pH 6.5, 1.5 M magnesium sulfate, 18 °C
Conditions: both partners purified

binding result: binds
B1: PabA, glutaminase subunit of ADCS from Escherichia coli, as crystallized, with glutamyl thioester (Gln-TE) on aC79 (enzyme)
chain: MILLIDNYDSFTWNLYQYFCELGADVLVKRNDALTLADIDALKPQKIVISPGPCTPDEAGISLDVIRHYAGRLPILGVCLGHQAMAQAFGGKVVRAAKVMHGKTSPITHNGEGVFRGLANPLTVTRYHSLVVEPDSLPACFDVTAWSETREIMGIRHRQWDLEGVQFHPESILSEQGHQLLANFLHR
modifications: glutamyl thioester (Gln-TE) adduct covalently bound to the catalytic C79
notes: PabA, class I glutaminase subunit of ADCS, E. coli; the gene was cloned into pET28a; Same construct as m20; the adduct forms in one of the two heterodimers of the crystals grown with Gln; also called PabA with Gln-TE; source: E. coli BL21-Gold (DE3), purified (Ni-IMAC, TEV cleavage, reverse IMAC, preparative gel filtration); crystallized with 0.2 M L-Gln; not shown: His6, N-terminal, cleaved
